Laboratory results published in patent US20080311122A1, “Antagonists of Hmgb1 and/or Rage and Methods of Use Thereof” (Medimmune, LLC, priority 2005, published 2008).

Tests used:
[1] = molecular target: T1, HMG2 (Bos taurus, UniProt P40673); assay: Binding to HMG1 vs. HMG2 ELISA; design: species or system calf; settings: immobilized antigen
T1 construct: from tissue; host or cells: calf thymus (as read from the sentence)
T1 sequence (P40673 1-209): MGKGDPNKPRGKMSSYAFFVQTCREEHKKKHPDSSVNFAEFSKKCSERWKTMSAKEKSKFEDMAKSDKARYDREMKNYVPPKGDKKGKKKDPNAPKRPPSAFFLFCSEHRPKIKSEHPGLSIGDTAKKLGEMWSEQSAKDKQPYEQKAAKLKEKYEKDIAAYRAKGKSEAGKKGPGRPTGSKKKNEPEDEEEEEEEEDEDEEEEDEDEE
Experimental: Binding to HMG1 vs. HMG2: Ultra high-binding ELISA plates (ThermoLab systems, #3855) were coated with either 5 ug/mL of Calf thymus HMGB1 or HMBG2 diluted in 10 mM Phosphate buffered saline (PBS), pH 7.2 and incubate overnight at 4 degrees. The plates were washed twice with Ca and Mg free PBS and 100 microliters of anti-HMGB1 antibody diluted in 10 mM PBS, pH 7.2+1% bovine serum albumin (BSA) to a final concentration of 10 ug/mL was added to each well and the plates were incubated 1 hour at room temperature. The wells were washed three times with 100 μl of PBS, pH 7.2. HRP labeled goat-anti-human IgG Kappa-chain (KPL, #14-10-10) and goat-anti-human IgG Lambda-chain (KPL, #14-10-11) were diluted in 10 mM PBS+1% BSA 1:1000 and 100 μl were added to each well and incubated for 1 hour at room temperature. The wells were then washed three times with 100 μl of PBS, pH 7.2. OPD substrate (Pierce chemical company, #34006) was prepared following the manufacturers instructions and 100 μl of prepared substrate was added to each well and the plates incubated at room temperature in the dark for 20-30 minutes. The reaction was stopped with the addition of 100 μl of 2M H2SO4, and the plates read on a plate reader at a wavelength of 490 nm.

[2] = molecular target: T2, recombinant HMG1 binding to RAGE-Fc (Homo sapiens, UniProt P09429); assay: HMG1 binding to RAGE-Ig by ELISA; settings: at the concentrations tested
T2 construct: made in house; host or cells: E. coli (HMG1)
T2 sequence (P09429 1-215): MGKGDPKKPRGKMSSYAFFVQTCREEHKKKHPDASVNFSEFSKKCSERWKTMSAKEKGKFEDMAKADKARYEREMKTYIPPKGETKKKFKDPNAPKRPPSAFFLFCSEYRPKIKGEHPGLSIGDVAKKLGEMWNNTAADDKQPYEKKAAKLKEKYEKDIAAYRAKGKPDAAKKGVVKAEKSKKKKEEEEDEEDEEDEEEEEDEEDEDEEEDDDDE
Experimental: HMG1 binding to RAGE-Ig by ELISA: 50 μl/well of RAGE-Fc fusion protein at 5 μg/ml in PBS was added to each well of an ELISA plate and incubated overnight at 4° C. The plate was then blocked with 200 μl of 5% milk at 37° C. for 1 hr and washed 3× with PBS/Tween. 50 μl/well of diluted HMGB1 solution. For dose curves, HMGB1 concentrations started at 4 ug/ml in PBS. For antibody blocking the HMGB1 was preincubated in another plate with human anti-HMG1 antibodies or buffer, then transferred to the RAGE-coated plate. The plates were then incubated at room temperature for 2 hours and washed 3×. To detect any HMG1 bound to the immobilized RAGE-Fc a mixture of biotinylated mouse anti-HMG1 mAbs (10D4, 4H11, 3E10 and 5C12) each at 1 ug/ml, total Ab: 4 ug/ml, were added to each well and the plate was incubated for 1 hour at room temperature. The plate was then washed and Strepavidin-HPR was added to each well and incubated 15 min. The plate was then washed 3× and blotted dry. 100 μl of TMB developing agent was added and the plate read at 650 nm. Values were calculated as percent of inhibition with HMG1 alone equal to 0% inhibition. The data in FIG. 9 and summarized in Table 1 represent the average of two separate experiments.

[3] = test system: HMG1 (recombinant, native; immobilized, soluble); assay: Direct and sandwich (capture) ELISA comparing forms of HMG1; format: binding; settings: two ELISA formats, rHMG1
Experimental: Direct ELISA (immobilized HMG1): Individual wells of a 96-well immunoplate (EIA/RIA plate, High binding, Costar) were coated with HMGB-1 at 5 μg/ml in PBS at 4° C. overnight. The plate was then blocked with 4% milk powder dissolved in PBS at 37° C. for 1 hour. The blocking solution was removed and replaced with human anti-HMG1 antibodies at various concentrations (see FIG. 4A). The plate was then washed (ELX-405 Plate washer, BIO-TEK) and secondary antibody (anti-human IgG-HRP, PIERCE) was added at a final concentration of 1:125,000 at 37° C. for 1 hour. HRP activity was detected with Sureblue HRP substrate (KPL). Plates were read at 450 nm using a Kinetic Microplate Reader (Molecular Devices).
Sandwich ELISA (soluble HMG1): Immunoplates (EIA/RIA plate, High binding, Costar) were coated with anti human IgG Fc at 10 μg/ml in PBS (pH 7.2) and incubated at 4° C. overnight. The coating reagent was removed and the plates were rinsed briefly with PBS. The plates were then blocked with 4% milk for 1 hour at 37° C. and rinsed with PBS. The anti-HMG1 antibodies were diluted in 4% milk. For serial dilutions, the antibodies were used at a starting concentration of 20 μg/ml. The diluted anti-HMG1 antibodies were then added into plate and incubated for 1 hr at 37° C. The plate was then washed 10 times with PBST (PBS/0.1% tween 20) and incubate with antigen (HMGB1, 2 μg/ml; or 0.7 μg/ml for native HMGB1) in 4% milk and incubated at 37° C. for 1 h. The plate was then wash 10 times and incubated with mouse anti-HMGB1, 1 μg/ml in 4% milk at 37° C. for 1 h. The plate was washed 10 times and incubated with anti-mouse IgG-HRP at 1:1000 at 37° C. for 1 h. The plate was then washed and developed. HRP activity was detected with Sureblue HRP substrate (KPL). Plates were read at 450 nm using a Kinetic Microplate Reader (Molecular Devices).

[4] = Isoelectric focusing gel electrophoresis; format: physicochemical
Experimental: Isoelectric Focusing Gel Electrophoresis: Isoelectric points were determined using a Pharmacia Biotech Multiphor 2 electrophoresis system with a multi temp 3 refrigerated bath recirculation unit and an EPS 3501 XL power supply. Pre-cast ampholine gels (Amersham Biosciences, pI range 2.5-10) were loaded with 5 μg of protein. Broad range pI marker standards (Amersham, pI range 3-10, 8 μL) were used to determine relative pI for the Mabs. Electrophoresis was performed at 1500 V, 50 mA for 105 minutes. The gel was fixed using a Sigma fixing solution (5×) diluted with purified water to 1×. Staining was performed overnight at room temperature using Simply Blue stain (Invitrogen). Destaining was carried out with a solution that consisted of 25% ethanol, 8% acetic acid and 67% purified water. Isoelectric points were determined using a Bio-Rad Densitometer relative to calibration curves of the standards.

B1: S17: human anti-HMG1 antibody; VL/VH aa SEQ ID NO: 70/72 (antibody, listed as Homo sapiens, V domains shown)
VH: EVQLLESGGGLVQPGGSLRLSCAASGFTFSYYDMHWVRQAPGKGLEWVSRISPSGGYTWYADSVKGRFTISRDNSKNTLYLQMNSLRAEDTAVYYCTRGRYTSGWHEYFDPWGQGTLVTVSS
VL: AQDIQMTQSPSSLSASVGDRVTITCRASQSIGTYLNWYQQKPGTAPKVLIYAASSLQSGVPSRFSGSGSGTDFTLTISSLQPEDFSTYYCQQSYNTPRTFGQGTKLEIK
- relative binding to HMG1 and HMG2 [1]: specific for HMG1
- block of recombinant HMG1 binding to RAGE [2]: do not at the concentrations tested
- binding to immobilized versus soluble HMG1 [3]: to a lesser extent S17 have a higher affinity for soluble HMG1
- PI [4]: 8.7

B2: G2: human anti-HMG1 IgG1 from Fab phage display library; VL/VH aa SEQ ID NO: 30/32 (antibody, listed as Homo sapiens, V domains shown)
VH: EVQLLESGGGLVQPGGSLRLSCAASGFTFSWYKMQWVRQAPGKGLEWVSGISPSGGSTAYADSVKGRFTISRDNSKNTLYLQMNSLRAEDTAVYYCAKMGLFNTGNSYVDYWGQGTLVTVSS
VL: AQSELTQPPSVSEAPGQRVTISCSGSTSNIGNNAVIWYQQLPGKAPKLLIYYDDLLPSGVSDRFSGSKSGTSGSLAISGLQSEDEADYYCASWDDNLNGPLFGGGTKLTVL
- relative binding to HMG1 and HMG2 [1]: specific for HMG1
- block of recombinant HMG1 binding to RAGE [2]: significant ability to block the binding of HMG1 to RAGE
- binding to immobilized versus soluble HMG1 [3]: little difference in binding to immobilized or soluble HMG1
- PI [4]: 7.78
